Measured values: the DeepSol protein solubility set

Experiment: soluble on expression in E. coli; label from the status in PepcDB or PDB records

Soluble on expression in E. coli, soluble:
MVDNKVTQSNKLIESSHTLTLNEKRLVLCAASLIDSRKPLPKDGYLTIRADTFAEVFGIDVKHAYAALDDAATKLFNRDIRRYVKGKVVERMRWVFHVKYREGQGCVELGFSPTIIPHLTMLHKEFTSYQLK
MAQLYYRYGTMNSGKTIEILKVAYNYEEQGKGVVIMTSALDTRDGVGYVSSRIGMKRPALAIEETTDIFGYIRDLPEKPYCVLVDEAQFLKRHHVYDLARVVDELDIPVMAFGLKNDFRNELFEGSKYLLLLADKIDEIKTICQYCKKKATMVLRTQDGLPVYDGEQIQIGGNETYISVCRKHYFAPMITSNKEQNYDNLEHHHHHH
SRGRGGTGGARRLSCGARRRAARGTSPGRRLSTAWSQPQPPPEEYAGADDVSQSPVAEEPSWVPSPRPPVPHESPEPPSGRSLVQRDIQAFLNQCGASPGEARHWLTQFQTCHHSADKPFAVIEVDEEVLKCQQGVSSLAFALAFLQRMDMKPLVVLGLPAPTAPSGCLSFWEAKAQLAKSCKVLVDALRHNAAAAVPFFGGGSVLRAAEPAPHASYGGIVSVETDLLQWCLESGSIPILCPIGETAARRSVLLDSLEVTASLAKALRPTKIIFLNNTGGLRDSSHKVLSNVNLPADLDLVCNAEWVSTKERQQMRLIVDVLSRLPHHSSAVITAASTLLTELFSNKGSGTLFKNAERMLRVRSLDKLDQGRLVDLVNASFGKKLRDDYLASLRPRLHSIYVSEGYNAAAILTMEPVLGGTPYLDKFVVSSSRQGQGSGQMLWECLRRDLQTLFWRSRVTNPINPWYFKHSDGSFSNKQWIFFWFGLADIRDSYELVNHAKGLPDSFHKPASDPGS
SLKIAIVRLSALGDIIQSAVVLQFIKNFKKDIEIHWFVDEKFEGILKNHPLINKLYALPLKDKKILKSLKILLKARKNNYNAVIDLQGLIKSAIVSRILSRNNFGFDKNSLKESFAHNFYNQKLELDYNENVFVRYLSLTSFMLNTDFNVKNLAFKQDIFSVDENLKQLLNNKLKLDKNEKNILIHVGSSVENKIYPKTKLAILCKLLINEFQQTKIWLAWGNVKEYEFAKEVLNLSGIDETHIELAPKFNLEELMAFTKMMNLIIGNDSGPTHLAFALNKASITIFGATPSYRNAFQTHINKIIDAGKKIQNAKHIDKSDFCITRIEEEDIFKLAKGLLN
MSLVDRNIGGSVTAPRIRVIEIDAFERDIRLRLPFRFGAATLEKAPQAFLRVRVEDEEGRTGLGATAEMMVPKWFDKNPAFTPAQNVDQLRTSIHTAAAASLEPSELATLFAAARLNEMETVRRLPGNPLAACFGPSLIARAALDAYCRLAGISFFEAVRGNLVGIGGPMLPGDIDADAASAMLAGLRPAGAISARHTIGLVDPITEGDIVDPVGDGLPESLEAVITRYGNRWFKIKLSGTIDADIDRLTRIAAVLDRLPDYRVTVDGNEQFGAPEQLAALLGQIEARPRLARLRAAIAFVEQPFSRAITMETPLGDLAAQLPFLIDESDDGDGAFAAARRLGYTGVSSKTCKGIYRSLMKAIRIRTGTAPGLFLSGEDLTCQAGLAVQQDLALVSLLGLSHVERNGHHYVAGMQGAPQAEKLRFAAAHPDLYEQGGDGPLLSIRDGRIAIASLGAVGYASGALPDFEAMTPMSEGHHHHHH

Soluble on expression in E. coli, not soluble:
MGSDKIHHHHHHMTDLGLYRHLDQMAPWNDRLQVLEVIGVSDEAPDVKTFTFRSDNQTWFRYKPGQFVTLELPTPDGPLMRTYTLSSSPSRPFSIAVTVKAQAGSIGTRWMFDHLVPGSHVKAYGPSGDFSLHSHPAAKYLFISAGSGVTPMMSMLRWLNDCAPWTDVGFVNCARRPEEIIFRKELELLGGHMPGLSLGFMIEERSSREGWYGHMGRIDAIRLPLLAPDFREREIFCCGPDPFMRAVRGMLEAAGFDMTKYHQESFAAPAVEEVPAPFVSPGEDGVTVPVEATPIRFALSVVDAECVAGQTVLQTARASGVRIPAACEFGLCGTCKVKKVSGAVEMSHNGGILDHEIDDGFILACCSKPLSALEIEA
MSTSVKHREFVGEPMGDKEVTCIAGIGPTYGTKLTDAGFDKAYVLFGQYLLLKKDEDLFIEWLKETAGVTANHAKTAFNCLNEWADQFM
MALATRNLKVIHIKRIENSRSSLIRANHGSKGIIHLILDQAPYHRADKVKEKAKKLVIHLNYLPPYSPNLNPIERLWKVMNEKVRNNRFFNSAKDFRREIERFFTEILPDIGASLGQSINDNFQLEHHHHHH
MGSDKIHHHHHHMKSWVENVTIKKYEDRSGLTGLKQGPLVWTEVFLREVNRQSNTGILHFWPMDQTVILGMMDSQVAQLDKGLASIGQAGYSPIIRSLGGLAVVADDGILNVTLIFPNPSGHKVDLRESYQVMVDLIAQALSDFPFEVVSGEVATSYCPGTYDLSIKGRKFAGLAQRIYQEAIAISAYISVSGNQVKRGQVVADFYAASFAPQEVSDRFPQVNPNSMANLSDLVAQDLTMEDMKIRIEHVLIENGAFLTTFYPSSDNMADFMALGKTIKQSMEKYGI
MDVTQLKMLRNAKVVSEIKKGFSIDKKYQVDETYLVRVFPKELLQTRKQEFEIIQALGSQTPFVPRAYDFGCTGGEGYMIIGYVRGEDAENGMFRLSHSEQFKAGFSAGEILREVHKIPLDIPKMNWLDFQTAKFKRKVEELKELEITASFLTETEQFVYENIARLKNRPVCLQHGDFHPANIILKNKKFAGLIDFNRLEFGDPLFDLAKIGFFTTEVSIPFARGNILGYIDKEEVTDFWNLYALYTAMHITSAVNWAAKNESRNFNKLMNYAAKTAASHDNFQKLMPDWMNKEEFK
MKEFIISEARTEPTVLVGLITPQQSETQVREYLDELAFLCETAGAQPIARFTQKLDQPNSVTFVGKGKLDEIRAYVQENEIGMVVFDDELSPKQLRNIEKELQTKILDRTGLILDIFARRAQTAHAKTQVELAQYQYMLPRLTGLWTHLERQRGGVGMRGPGEKQLETDRRIVLDKIARLKEELRDIDKQKSVQRKNRGKMVRVALVGYTNVGKSTLMNVLSKSEVFAENKLFATLDTTVRKVIIDNLPFLLSDTVGFIRKLPTQLVESFKSTLDEVREADLLVHVVDMSHPAFEEQIEVVNQTLAEITAGEEKPMLLLFNKIDAFSFTPKDEDDLTPRTKENISAEELQQTWMAKLGNDCLFVSAKKGTGMDALKALLYERAKAIHITRFPYNDFLFQDYSEEME
MGSDKIHHHHHHMETLRILHTNDLHSHFEHFPKIRRYLKQVQETAAADQVLTFDAGDFMDRSHPLSDATEGQANIRLMNDFHYDAITIGNNEGISNPHAVLERLFDHANFPVLLSNLREEDESWPAWANDYKIIKTKKGTRLALVGLTAAYPMTYGPNHWQIKMLGETMDRVLPEIAGQYDCLILLTHVGLRMDQWLAKHYPEIDLIVGGHSHTLLEKGVKEGRTWITQTDKWGNYVGDISLEIGDDHKIISIKPTTVPVADLPSQAGDEAEIAALYEEGQKMLQSRHVADLPEKFKDDKLAAIDVSLEAIADFAGTDLAMLSTGLFLTPFKGGLINQFDLQHALPHPMHVVRTTLLGRDLWRLVMEVEKNRHFLENYPLVGMSFRGKIFGQVYYRGIKYDPMTRNVFVNGQLLDPAEEYRIAVLDHYVLIPFFPTLAIVGENEFLFPQFLREVVGDYLGRKYPMKKEGE
MGSDKIHHHHHHMTENEFLSQEEIDKLLSDSDTGGVLTPEEKDMIGEIGNIAMGSAATTLSMILGRDIHITVPTVREEKMKNVKSDFSGEQVVVSVEYTEGLEGLNVLVLDKKLVAVIADLMMGGSGEVETEELDEIKLSAVGEAMNQMMGSAATSLSELLGITINISPPKVEILNFDDPNTQFPPVTDNPEKDVAVVEFEMEIEGLPKSKFYQVISADLVKKMYEYFTKKQSEAAEKKEKKEEKKVKVEPVEFAELKPSETRKTEVPSDKLELLLDIPLKVTVELGRTRMTLKRVLEMIPGSIIELDKLTGEPVDILVNGKLIARGEVVVIDENFGVRITEIVSPKERLELLNE
MGSDKIHHHHHHMKLAFICTEKLPAPAVRGGAIQMMIDGVTPYFSSRYDLTIFSIEDPSLPKRETKDGVHYIHLPKEHYREAVAEELRASSFDLIHVFNRPLNVSLYKKASPNSKIVLSLHNEMFSEKKMTFAQGKEVLDNVSMITTVSEFIKQTVIERFPEAEDITKVVYSGVDLNSYPPVWTMKGSAVRKTYRKKYGIEDKKVILFAGRLSPTKGPHLLIHSMRRILQQHPDAVLVIAGGKWFSDDSENQYVTYLRTLALPYRDHIIFTKFIPADDIPNLFLMADVFVCSSQWNEPLARVNYEAMAAGTPLITTNRGGNGEVVKHEVTGLVIDSYNKPSSFAKAIDRAFTDQELMNKMTKNARKHVEALFTFTHAAKRLNTVYQSVLTPKNKQFPPPFLTQNFDLSSINQLFVKAKT
MRITVLILSTLLVTILNGLPIVPVVEDSISPEEVPEPSPEIEENTVPPPRVISPRVDVSVDVNEDGVLDIDEIRYAAFVHHGLSASVVEDLFKQVDTNRDNVLDAREFDAIRMLVLEKAENAALRYLQNVDTDRDGLLSLQEAQIYLLREYGIGYHDVARLWKLVPADLSDRMNSTLFSKLRRRVRGMTIRLARQIMKNADLNGDGHISVDEAQAIAFEQEGIGAGDVASMVGSVDENMDGELNAPEFADFERIIRARAIENSKKAMRVVDADNSGTLTLDEAKRVAFEHYGFDEATLAPFFGQADENEDGQLDNVEFAGFRSVIRARSVRDAMDKMKRIDTNGDGLVSNAEATDSTKKEDDMDSEETLALFNIADQNKSGKLDKVELADFNRLVRLSSIKFATDHFKEFDLDGNDAVTFDEIALLIEQKYGIPRSMIKTFFDRIDVDGSGDLMPAEIVDFRHLIRNHVSQQRQEKVYFLTL
MTNHIEYKKNQIIASSEIDDLIFMSAPQEWSLEEQKEIQDKLVREAFHFHYNRNEKYRNYCISQHINENLHSIDEIPVFPTSIFKHMKFHTVSMGDIENWHTSSGTQGIKSCIARDRLSIERLLGSVNFGMKYVGNWFEHQMELVNLGPDRFSASNVWFKYVMSLVELLYPTVFTVNNDKIDFEETVNHLYRINNSNKDICLIGPPFFVSLLCQYMKENNIEFKGENRLHVITGGGWKSNENSSLNRQDFNQLIMDTFQLDNVNQIRDTFNQVELNTCFFEDEFQRKHVPPWVYARALDPETLKPVADGELGLLSYMDASSTAYPAFIVTDDIGIVREIREPDPYPGVTVEIVRRLNTRAQKGCALSMASFIQSTILEHHHHHH
MAIYILEDQIIQAKALEVLLTNILHSRNIYNETIHLFSRSDELLQVAHQDAQLNIFFLDIQMNNHIQAGFEVAKEIRKTDSESLIVFISTHTELVLTSYKYMVSALQFIQKNVDFLDFQKEVETCVDAYIQQKENIKTKSEYIIINLKASSIKMDINDIYFFQTEYDHRVSMVGKNFKREFYGTLSKIEQLHPDLIRVHQSIIINKKYASKLNYKTHLLTMRDGTEVPVSRRYYTQVKALFLT
LTLKNPIMVVGLPGVGLVGKLVAEHLVDELAAERIMEVYSPHFPPQVLVNKDCTVRPVSNTIYLGKANETDVLFLVGDHQSTTAQGHYELCSLYLDIAEELKVPRIYTLGGYPTGKLTYEDTVLGVANSTELIEEIKQYGVEFRESEPSGGIVGASGLLVAFSGMRGIDAACLMGMTPGYLMDPKSAQSLLKVLCNIFGIEVNTDSLKKKAEEMENILEKLKEKEEQQNLPEVKPTEEDLRYIG
MGSDKIHHHHHHMKQSEQEEPLTGGNVSDVSRIGETVRREQKPESLRVHRVLQHLEQKGFEGSPRYLGIDPQGREILSFIEGEAGNYPLQPYMQSDRVLEETARLLRSYHEAVADFPIPTDWQPLDGTPEPLELICHNDFAVYNVIFQNERPVGIIDFEVAAPGPRIWDIAYTMYTFVPLSRHQMTEDGEPAHYNPVNDQERIRRRVLLFLSAYGKAELKDEMYETVLLRVEALIKTIHRRAAEGDDAFQRMIDDGHVTHYEQEIDFLKREGADWFR
MGTPQGKLKTINGVGKIEDFASTKAKMRVRYPLLITFNYWVLYKSPDKSWFISANPSTEDVWVYARSVPSKAKLNRMMMKVRELGYDVKKLEFPLEHHHHHH
